For 16 molecules, Bmax and EC50 results are on record in US20240002497A1 (Merck Sharp & Dohme, published 2024).

The target of experiment [1] is T1, rhNav1.7α + β1-β2-β3 (rhesus monkey).
T1 construct: also called rhNav1.7-beta1-beta2-beta3; rhNav1.7-β1-β2-β3
The experiment is described as follows: binding FACS, CHO FlpIn. The procedure, abridged: (§1)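 Cells in FACS buffer (PBS, 10% FBS, NaN₃) were incubated with purified FLAG3-tagged ISVD for 30 minutes at 4° C. Bound ISVD was detected by flow cytometry with murine anti-Flag, and dead cells were excluded with 1 μg/mL propidium iodide.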

In experiment [2] the target is T2, huNav1.7α + β1-β2-β3 (human, UniProt Q15858 1-1988; A5A6L6 19-218; O60939 30-215; Q2KI11 23-215).
T2 construct: also called huNav1.7-beta1-beta2-beta3; huNav1.7-β1-β2-β3
The experiment can be described thus: binding FACS, CHO FlpIn. The procedure, abridged: as §1

Experiment [3] has as its target T3, muNav1.7α (murine, UniProt Q62205 1-1984).
T3 construct: HEK JmpIn cells; also called murine Nav1.7α
The experiment can be described thus: binding FACS, HEK JmpIn. The procedure: Binding of the ISVDs to cell-expressed Nav1.7α was detected via murine anti-Flag (Sigma, catalog #F1804). Briefly, cells were resuspended in FACS buffer (PBS, 10% FBS, NaN₃) and transferred to a 96-well V-bottom plate at 1×10^5 cells/well. Purified FLAG3-tagged ISVD was diluted in FACS buffer and added to the cells for 30 minutes at 4° C. […] Prior to the read-out, the samples were resuspended in 1 μg/mL propidium iodide (Sigma, catalog #P4170) to exclude dead cells. Between each step, the cells were centrifuged for 5 minutes at 200 grams and washed with 100 μL/well FACS buffer.

B1: F010302337 (VHH)
VHH: EVQLVESGGGVVQPGGSLRLSCAASHRQFIRDVFTGWYRRAPGKQRELVARIYEGGNTQYADSAKGRFTISRDNAKKTVYLQMNSLRPEDTALYYCLFSGTISTGREYRSGDYWGQGTLVTVSS
As to B1, the Bmax in experiment [1] stood at 100%; in experiment [2], 100%; in experiment [3], 74%. Moreover, the values for the EC50 in experiment [1] and in experiment [2] were 6.8 nM and 3.9 nM, respectively.

B2: F010302339 (VHH)
VHH: EVQLVESGGGVVQPGGSLRLSCAASHRAFIRDVFTGWYRRAPGKQRELVARIYEGGNTQYADSAKGRFTISRDNAKKTVYLQMNSLRPEDTALYYCLFSGTISTGREYRSGDYWGQGTLVTVSS
Regarding B2, the Bmax in experiment [1] amounted to 100%; in experiment [2] it was 100%; in experiment [3], 61%. For the same molecule, the EC50 in experiment [1] came to 6.8 nM; in experiment [2], 4.3 nM; in experiment [3] it was 8.7 nM.

B3: F010301873 (VHH)
VHH: EVQLVESGGGVVQPGGSLRLSCATTSRAFIRDVFTGWYRQVPGKERELVARIYNGGNTNYADFAKGRFTISRDNAKKMVYLQMNSLRPEDTALYYCLFSGTINTGREYRSGDYWGQGTLVTVSS
notes: also called F0103464B09(L11V, R39Q, S68T, T79Y, R81Q, S82aN, N82bS, K83R, G88A, V89L)
Consider B3, for which the EC50 was 110 nM in experiment [1], 9 nM in experiment [2] and 42 nM in experiment [3]. Besides, the Bmax in experiment [2] came out at 100%.

B4: F010301933 (VHH)
VHH: EVQLVESGGGVVQPGGSLRLSCATTSRAFIRDVFTGWYRRVPGKERELVARIYNGGNTNYADFAKGRFTISRDNAKKMVTLRMSNLRPEDTGLYYCLFSGTINTGREYRSGDYWGQGTLVTVSS
notes: also called F0103464B09(L11V, S68T, K83R, V89L)
As to B4, the results for the concentration giving a half-maximal response (EC50) in experiment [1], in experiment [2] and in experiment [3] were 21 nM, 4.4 nM and 5.3 nM, respectively. Besides, in experiment [2], the Bmax came out at 94%.

B5: F010301874 (VHH)
VHH: EVQLVESGGGVVQPGGSLRLSCATTSRAFIRDVFTGWYRRAPGKERELVARIYNGGNTNYADFAKGRFTISRDNAKKMVYLQMNSLRPEDTALYYCLFSGTINTGREYRSGDYWGQGTLVTVSS
notes: also called F0103464B09(L11V, V40A, S68T, T79Y, R81Q, S82aN, N82bS, K83R, G88A, V89L)
Turning to B5, the EC50 was found to be 55 nM in experiment [1], 6.5 nM in experiment [2] and 18 nM in experiment [3]. Also, the Bmax in experiment [2] was 100%.

B6: F010301893 (VHH)
VHH: EVQLVESGGGVVQPGGSLRLSCATTSRAFIRDVFTGWYRRVPGKQRELVARIYNGGNTNYADFAKGRFTISRDNAKKMVYLQMNSLRPEDTALYYCLFSGTINTGREYRSGDYWGQGTLVTVSS
notes: also called F0103464B09(L11V, E44Q, S68T, T79Y, R81Q, S82aN, N82bS, K83R, G88A, V89L)
In the case of B6, the EC50 in experiment [1] was 21 nM; in experiment [2] it was 5.8 nM; in experiment [3] it was 3.6 nM. Further, the Bmax in experiment [2] was 100%.

B7: F010301877 (VHH)
VHH: EVQLVESGGGVVQPGGSLRLSCATTSRAFIRDVFTGWYRRVPGKERELVARIYNGGNTNYADFAKGRFTISRDNAKNMVYLQMNSLRPEDTALYYCLFSGTINTGREYRSGDYWGQGTLVTVSS
notes: also called F0103464B09(L11V, S68T, K76N, T79Y, R81Q, S82aN, N82bS, K83R, G88A, V89L)
On to B7, for which the EC50 in experiment [1] amounted to 96 nM; in experiment [2], 13 nM; in experiment [3], 39 nM. Further, the Bmax in experiment [2] is 100%.

B8: F010301939 (VHH)
VHH: EVQLVESGGGVVQPGGSLRLSCATTSRAFIRDVFTGWYRRVPGKERELVARIYNGGNTNYADFAKGRFSISRDNAKKMVTLRMSNLRPEDTALYYCLFSGTINTGREYRSGDYWGQGTLVTVSS
notes: also called F0103464B09(L11V, K83R, G88A, V89L)
For B8, the EC50 was determined as 22 nM in experiment [1], 5.1 nM in experiment [2] and 6.3 nM in experiment [3]. Besides, the Bmax in experiment [2] was determined as 96%.

B9: F010301875 (VHH)
VHH: EVQLVESGGGVVQPGGSLRLSCATTSRAFIRDVFTGWYRRVPGKERELVARIYNGGNTNYADSAKGRFTISRDNAKKMVYLQMNSLRPEDTALYYCLFSGTINTGREYRSGDYWGQGTLVTVSS
notes: also called F0103464B09(L11V, F62S, S68T, T79Y, R81Q, S82aN, N82bS, K83R, G88A, V89L)
For the molecule B9, the results for the concentration giving a half-maximal response (EC50) in experiment [1], in experiment [2] and in experiment [3] were 52 nM, 6.4 nM and 14 nM, respectively. In addition, the Bmax in experiment [2] is 100%.

B10: F010301938 (VHH)
VHH: EVQLVESGGGVVQPGGSLRLSCATTSRAFIRDVFTGWYRRVPGKERELVARIYNGGNTNYADFAKGRFSISRDNAKKMVTLRMSSLRPEDTGLYYCLFSGTINTGREYRSGDYWGQGTLVTVSS
notes: also called F0103464B09(L11V, N82bS, K83R, V89L)
B10: the EC50 is 20 nM in experiment [1], 4.8 nM in experiment [2] and 4.7 nM in experiment [3]. Further, the Bmax in experiment [2] was determined as 97%.

B11: F010301936 (VHH)
VHH: EVQLVESGGGVVQPGGSLRLSCATTSRAFIRDVFTGWYRRVPGKERELVARIYNGGNTNYADFAKGRFSISRDNAKKMVTLQMSNLRPEDTGLYYCLFSGTINTGREYRSGDYWGQGTLVTVSS
notes: also called F0103464B09(L11V, R81Q, K83R, V89L)
As for B11, the EC50 in experiment [1] was determined as 26 nM; in experiment [2], 4.4 nM; in experiment [3], 4.8 nM. Moreover, the Bmax in experiment [2] stood at 95%.

B12: F010301937 (VHH)
VHH: EVQLVESGGGVVQPGGSLRLSCATTSRAFIRDVFTGWYRRVPGKERELVARIYNGGNTNYADFAKGRFSISRDNAKKMVTLRMNNLRPEDTGLYYCLFSGTINTGREYRSGDYWGQGTLVTVSS
notes: also called F0103464B09(L11V, S82aN, K83R, V89L)
In the case of B12, the results for the concentration giving a half-maximal response (EC50) in experiment [1], in experiment [2] and in experiment [3] were 20 nM, 4.3 nM and 4.8 nM, respectively. For the same molecule, the Bmax in experiment [2] amounted to 95%.

B13: F010301932 (VHH)
VHH: EVQLVESGGGVVQPGGSLRLSCATTSRAFIRDVFTGWYRRVPGKERELVARIYNGGNTNYADFAKGRFSISRDNAKKMVTLRMSNLRPEDTGLYYCLFSGTINTGREYRSGDYWGQGTLVTVSS
notes: also called F0103464B09(L11V, K83R, V89L)
Regarding B13, the EC50 was found to be 17 nM in experiment [1], 4.3 nM in experiment [2] and 4.8 nM in experiment [3]. Also, the Bmax in experiment [2] stood at 94%.

B14: F010301876 (VHH)
VHH: EVQLVESGGGVVQPGGSLRLSCATTSRAFIRDVFTGWYRRVPGKERELVARIYNGGNTNYADFVKGRFTISRDNAKKMVYLQMNSLRPEDTALYYCLFSGTINTGREYRSGDYWGQGTLVTVSS
notes: also called F0103464B09(L11V, A63V, S68T, T79Y, R81Q, S82aN, N82bS, K83R, G88A, V89L)
B14: the EC50 in experiment [1] was determined as 110 nM; in experiment [2], 6.3 nM; in experiment [3] it was 23 nM. Further, in experiment [2], the Bmax worked out at 100%.

B15: F010301935 (VHH)
VHH: EVQLVESGGGVVQPGGSLRLSCATTSRAFIRDVFTGWYRRVPGKERELVARIYNGGNTNYADFAKGRFSISRDNAKKMVYLRMSNLRPEDTGLYYCLFSGTINTGREYRSGDYWGQGTLVTVSS
notes: also called F0103464B09(L11V, T79Y, K83R, V89L)
Consider B15, for which the EC50 in experiment [1] was 27 nM; in experiment [2], 3.8 nM; in experiment [3], 5.5 nM. Besides, the Bmax in experiment [2] stood at 94%.

B16: F010301934 (VHH)
VHH: EVQLVESGGGVVQPGGSLRLSCATTSRAFIRDVFTGWYRRVPGKERELVARIYNGGNTNYADFAKGRFSISRDNAKKTVTLRMSNLRPEDTGLYYCLFSGTINTGREYRSGDYWGQGTLVTVSS
notes: also called F0103464B09(L11V, M77T, K83R, V89L)
For the molecule B16, the EC50 in experiment [1] was 21 nM; in experiment [2], 4.3 nM; in experiment [3], 4.5 nM. Further, the Bmax in experiment [2] was determined as 96%.
